Data taken from patent US20120149060A1 (EUROPAISCHES LABORATORIUM FUR MOLEKULARBIOLOGIE EMBL, published 2012).
One block for each binder: values may come before it.

What was measured:
[1] = biological target: T1, Von Hippel Lindau protein (amino acids 54-213), fused at its N-terminus to a six-histidine-thioredoxin fusion … (human, UniProt P40337 54-213); experiment: co-expression in E. coli, Ni2+ affinity capture by the tag on VHL, SDS-PAGE
T1 construct: range 54-213; Subunit of the VHLbc complex, expressed from the pACE-VHLbc tricistron; also called VHL; HisTrxVHL; not shown: N-terminal six-histidine-thioredoxin fusion tag

Pml1p = biological target: T2, Pml1p (yeast, UniProt Q07930 1-204); experiment: co-expression in E. coli, Ni2+ capture by the His6 tag on Snu17p, then S200 size exclusion chromatography
T2 construct: Stated to be full-length; subunit of the yeast RES complex; also called Pm1lp
T2 sequence (looked up): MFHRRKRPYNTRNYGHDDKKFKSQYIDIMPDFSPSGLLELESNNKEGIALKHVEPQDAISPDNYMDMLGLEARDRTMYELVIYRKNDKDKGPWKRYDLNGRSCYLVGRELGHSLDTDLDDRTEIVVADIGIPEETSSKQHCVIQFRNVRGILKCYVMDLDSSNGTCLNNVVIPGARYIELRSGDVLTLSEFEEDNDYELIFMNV

Bud13p = biological target: T3, Bud13p (yeast, UniProt P46947 1-266); experiment: as above
T3 construct: Stated to be full-length; subunit of the yeast RES complex
T3 sequence (looked up): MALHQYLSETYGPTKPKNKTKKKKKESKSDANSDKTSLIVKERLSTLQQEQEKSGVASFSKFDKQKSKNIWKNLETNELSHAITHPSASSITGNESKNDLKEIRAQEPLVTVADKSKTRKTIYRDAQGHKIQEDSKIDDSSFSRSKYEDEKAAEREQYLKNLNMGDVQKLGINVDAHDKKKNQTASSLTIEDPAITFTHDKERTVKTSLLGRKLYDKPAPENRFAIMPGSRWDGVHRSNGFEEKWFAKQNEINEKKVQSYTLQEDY

[2] = biological target: T4, full-length human RAP74 with a C-terminal oligo-histidine tag (human, UniProt P35269 1-517); experiment: co-expression in E. coli, Ni2+ capture by the His tag on RAP74, then S200 size exclusion chromatography
T4 construct: Stated to be full-length; co-expressed with RAP30 in E. coli BL21(DE3); also called hRAP74; RAP74his; not shown: C-terminal oligo-histidine tag
T4 sequence (looked up): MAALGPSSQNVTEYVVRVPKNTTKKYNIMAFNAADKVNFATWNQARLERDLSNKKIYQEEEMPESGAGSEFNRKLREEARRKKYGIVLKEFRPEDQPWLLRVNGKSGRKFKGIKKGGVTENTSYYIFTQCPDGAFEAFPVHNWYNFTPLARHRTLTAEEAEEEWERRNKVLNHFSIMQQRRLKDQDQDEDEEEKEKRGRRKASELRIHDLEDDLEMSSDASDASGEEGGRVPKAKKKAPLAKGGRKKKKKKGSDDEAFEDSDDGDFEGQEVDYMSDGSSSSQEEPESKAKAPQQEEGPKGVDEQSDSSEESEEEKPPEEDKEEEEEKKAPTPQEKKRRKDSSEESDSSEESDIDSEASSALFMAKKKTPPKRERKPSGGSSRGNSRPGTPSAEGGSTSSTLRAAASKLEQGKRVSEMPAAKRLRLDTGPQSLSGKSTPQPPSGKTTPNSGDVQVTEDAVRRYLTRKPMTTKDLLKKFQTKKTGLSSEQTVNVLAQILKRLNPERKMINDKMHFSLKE

T1 sequence (P40337 54-213): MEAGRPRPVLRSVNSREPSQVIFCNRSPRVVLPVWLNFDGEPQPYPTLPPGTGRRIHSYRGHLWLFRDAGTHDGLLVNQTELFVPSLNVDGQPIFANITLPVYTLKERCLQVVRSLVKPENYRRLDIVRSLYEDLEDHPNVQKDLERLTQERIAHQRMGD

- binding result [1]: binds
B1: full-length elongin b (other, human, UniProt Q15370 1-118, looked up)
chain: MDVFLMIRRHKTTIFTDAKESSTVFELKRIVEGILKRPPDEQRLYKDDQLLDDGKTLGECGFTSQTARPQAPATVGLAFRADDTFEALCIEPFSSPPELPDVMKPQDSGSSANEQAVQ
notes: Stated to be full-length

- binding result (Pml1p): binds
- binding result (Bud13p): binds
B2: His6-tagged Snu17p (other, yeast, UniProt P40565 1-148, looked up)
chain: MNKIQQINDKELQSGILSPHQSWHNEYKDNAYIYIGNLNRELTEGDILTVFSEYGVPVDVILSRDENTGESQGFAYLKYEDQRSTILAVDNLNGFKIGGRALKIDHTFYRPKRSLQKYYEAVKEELDRDIVSKNNAEKLILAKKDQPN
notes: Stated to be full-length; subunit of the yeast RES complex; also called Snu17p-NHis; not shown: six-histidine tag fused to the N-terminus

- binding result [2]: binds
B3: full-length human RAP30 (other, UniProt P13984 1-249, looked up)
chain: MAERGELDLTGAKQNTGVWLVKVPKYLSQQWAKASGRGEVGKLRIAKTQGRTEVSFTLNEDLANIHDIGGKPASVSAPREHPFVLQSVGGQTLTVFTESSSDKLSLEGIVVQRAECRPAASENYMRLKRLQIEESSKPVRLSQQLDKVVTTNYKPVANHQYNIEYERKKKEDGKRARADKQHVLDMLFSAFEKHQYYNLKDLVDITKQPVVYLKEILKEIGVQNVKGIHKNTWELKPEYRHYQGEEKSD
notes: Stated to be full-length; also called hRAP30
